The data set has as its target DNMT5 (Cryptococcus neoformans, UniProt J9VI03 58-2377). The data set can be described thus: fluorescence polarization. (Fluorescence polarisation rises when a labelled molecule tumbles more slowly, as on binding a larger partner.)

These results are taken from publication PMC8956514.

Sequence of DNMT5 (J9VI03 58-2377): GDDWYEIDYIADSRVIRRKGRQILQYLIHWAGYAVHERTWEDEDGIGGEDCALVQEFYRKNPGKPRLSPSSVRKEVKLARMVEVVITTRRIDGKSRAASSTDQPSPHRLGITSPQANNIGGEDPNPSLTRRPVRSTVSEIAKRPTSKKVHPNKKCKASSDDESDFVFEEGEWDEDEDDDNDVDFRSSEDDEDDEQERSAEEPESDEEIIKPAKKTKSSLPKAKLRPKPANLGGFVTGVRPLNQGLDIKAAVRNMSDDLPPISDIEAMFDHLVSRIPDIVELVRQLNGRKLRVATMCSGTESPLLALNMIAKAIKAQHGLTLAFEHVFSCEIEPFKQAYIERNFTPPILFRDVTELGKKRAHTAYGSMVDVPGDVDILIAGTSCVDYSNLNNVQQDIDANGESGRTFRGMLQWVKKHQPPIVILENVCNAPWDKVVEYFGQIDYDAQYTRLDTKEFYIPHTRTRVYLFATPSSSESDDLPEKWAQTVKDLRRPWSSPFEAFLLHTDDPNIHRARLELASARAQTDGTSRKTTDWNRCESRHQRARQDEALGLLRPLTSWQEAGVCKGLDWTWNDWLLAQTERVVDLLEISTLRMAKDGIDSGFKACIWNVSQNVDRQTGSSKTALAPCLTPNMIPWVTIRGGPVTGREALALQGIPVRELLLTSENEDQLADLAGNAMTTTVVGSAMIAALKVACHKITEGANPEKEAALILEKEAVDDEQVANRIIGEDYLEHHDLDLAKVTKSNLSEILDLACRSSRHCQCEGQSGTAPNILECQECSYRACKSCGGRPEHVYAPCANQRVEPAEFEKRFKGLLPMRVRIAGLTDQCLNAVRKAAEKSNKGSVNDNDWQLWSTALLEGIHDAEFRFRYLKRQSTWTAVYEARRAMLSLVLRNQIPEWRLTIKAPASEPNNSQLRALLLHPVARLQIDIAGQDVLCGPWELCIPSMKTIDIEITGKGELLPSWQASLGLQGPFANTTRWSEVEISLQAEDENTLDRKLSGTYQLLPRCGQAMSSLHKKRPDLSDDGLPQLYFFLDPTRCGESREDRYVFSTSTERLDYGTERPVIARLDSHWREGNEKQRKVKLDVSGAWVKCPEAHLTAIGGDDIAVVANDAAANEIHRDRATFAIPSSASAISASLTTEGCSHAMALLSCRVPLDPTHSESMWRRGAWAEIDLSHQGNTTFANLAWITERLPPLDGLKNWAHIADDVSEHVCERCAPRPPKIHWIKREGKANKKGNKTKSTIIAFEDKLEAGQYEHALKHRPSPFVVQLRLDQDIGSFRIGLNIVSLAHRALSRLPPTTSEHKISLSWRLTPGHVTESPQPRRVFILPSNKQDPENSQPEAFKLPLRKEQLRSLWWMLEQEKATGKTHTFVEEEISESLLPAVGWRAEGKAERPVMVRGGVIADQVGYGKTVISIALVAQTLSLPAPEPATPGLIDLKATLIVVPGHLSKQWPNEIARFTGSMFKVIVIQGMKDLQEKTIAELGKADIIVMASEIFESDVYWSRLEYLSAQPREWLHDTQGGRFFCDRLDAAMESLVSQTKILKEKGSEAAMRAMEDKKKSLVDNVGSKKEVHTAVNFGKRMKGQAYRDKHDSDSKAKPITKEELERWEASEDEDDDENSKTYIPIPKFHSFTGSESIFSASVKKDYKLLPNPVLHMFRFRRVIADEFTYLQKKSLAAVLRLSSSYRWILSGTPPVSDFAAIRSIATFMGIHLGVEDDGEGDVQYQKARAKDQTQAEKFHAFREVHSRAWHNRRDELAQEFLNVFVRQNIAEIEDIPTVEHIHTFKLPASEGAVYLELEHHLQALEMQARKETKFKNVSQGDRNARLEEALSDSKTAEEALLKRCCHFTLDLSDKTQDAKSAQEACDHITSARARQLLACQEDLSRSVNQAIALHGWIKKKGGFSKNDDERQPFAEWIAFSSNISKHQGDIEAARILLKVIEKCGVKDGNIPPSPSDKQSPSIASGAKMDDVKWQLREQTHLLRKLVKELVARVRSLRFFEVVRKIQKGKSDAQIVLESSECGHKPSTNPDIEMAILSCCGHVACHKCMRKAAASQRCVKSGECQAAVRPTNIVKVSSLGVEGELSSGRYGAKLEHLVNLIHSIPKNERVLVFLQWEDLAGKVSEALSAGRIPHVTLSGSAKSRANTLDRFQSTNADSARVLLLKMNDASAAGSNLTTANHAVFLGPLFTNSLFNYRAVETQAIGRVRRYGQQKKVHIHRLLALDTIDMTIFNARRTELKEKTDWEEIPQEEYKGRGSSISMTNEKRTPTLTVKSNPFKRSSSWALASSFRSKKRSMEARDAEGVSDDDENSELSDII

B1: FAM-hmDNA (dsDNA)
DNA 1: CCATGCGCTGACACTAGAATTGCCTAAGACCATACA
DNA 2: TGTATGGTCTTAGGCAATTCTAGTGTCAGCGCATGG
modifications: 5-methylcytosine at position 30 of strand 2 (hemimethylated CpG)
In the case of B1, the binding signal is ~4 fold preference over umDNA.
